The record followed here is paper PMC2190711.

What all share (assay): CD
One data set concerns spZαE3L (swinepox virus).
In the next data set the test system is hZαADAR1 (Homo sapiens).
Data set [1] has as its system lsZαE3L (lumpy skin disease virus).

Turning to d(CG)n DNA for CD B-to-Z conversion, the binding signal (% B-to-Z conversion) amounted to 65 with spZαE3L (swinepox virus), 100 in the data set on hZαADAR1 (Homo sapiens) and 90 in data set [1].
